Results from the supplement of paper PMC9112550, “Optimization of the antimicrobial peptide Bac7 by deep mutational scanning” (BMC Biology, 2022).

Test system: Escherichia coli TOP10
Test: shrunken log2 fold change of peptide-encoding DNA abundance (4.5 h post-induction vs induction); higher = less antimicrobial activity (less host growth inhibition)
Settings: time post-induction: 4.5 h; library: site-saturation at positions 5, 18, 19, 20
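Further: peptides expressed intracellularly from a pBAD plasmid library in pooled LB shake-flask culture, induced with 0.3% L-arabinose, DNA abundance read by NGS, three biological replicates, DESeq2 with apeglm shrinkage.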

Sequence	shrunken log2 fold change
RRIRNRPPRLPRPRPRPYPNPRP	-0.3
RRIRYRPPRLPRPRPRPPWAPRP	0.449
RRIRQRPPRLPRPRPRPMSYPRP	-0.01
RRIRIRPPRLPRPRPRPDHYPRP	-0.38
RRIRDRPPRLPRPRPRPIKIPRP	0.0725
RRIRTRPPRLPRPRPRPAHAPRP	0.0759
RRIRSRPPRLPRPRPRPLMWPRP	0.169
RRIRNRPPRLPRPRPRPGMEPRP	-0.0302
RRIRARPPRLPRPRPRPFERPRP	-0.0075
RRIRMRPPRLPRPRPRPGTDPRP	1.19
RRIRIRPPRLPRPRPRPAHQPRP	-0.0564
RRIRGRPPRLPRPRPRPWVSPRP	-0.0322
RRIRHRPPRLPRPRPRPRENPRP	0.0589
RRIRNRPPRLPRPRPRPGFCPRP	0.164
RRIRSRPPRLPRPRPRPMRCPRP	0.361
RRIRTRPPRLPRPRPRPGQWPRP	0.0938
RRIRARPPRLPRPRPRPCPSPRP	0.0639
RRIRKRPPRLPRPRPRPDDPPRP	0.237
RRIRFRPPRLPRPRPRPECNPRP	0.0687
RRIRQRPPRLPRPRPRPSCSPRP	-0.111
RRIRCRPPRLPRPRPRPDYIPRP	0.0495
RRIRWRPPRLPRPRPRPVSNPRP	0.0778

Sequence	shrunken log2 fold change
RRIRCRPPRLPRPRPRPCLVPRP	-0.463
RRIRYRPPRLPRPRPRPCQIPRP	-0.00804
RRIRERPPRLPRPRPRPDAPPRP	0.0716
RRIRPRPPRLPRPRPRPIAGPRP	0.0445
RRIRVRPPRLPRPRPRPGGGPRP	0.695
RRIRSRPPRLPRPRPRPHNHPRP	-0.576
RRIRRRPPRLPRPRPRPFYCPRP	-0.162
RRIRQRPPRLPRPRPRPQPTPRP	0.163
RRIRKRPPRLPRPRPRPYMQPRP	-0.0263
RRIRGRPPRLPRPRPRPRCCPRP	0.474
RRIRARPPRLPRPRPRPNGNPRP	-0.191
RRIRRRPPRLPRPRPRPCVWPRP	0.999
RRIRPRPPRLPRPRPRPGNVPRP	-0.344
RRIRGRPPRLPRPRPRPTMEPRP	0.751
RRIRSRPPRLPRPRPRPCQIPRP	-0.231
RRIRYRPPRLPRPRPRPRDYPRP	-1.39
RRIRMRPPRLPRPRPRPFFDPRP	0.232
RRIRRRPPRLPRPRPRPHHQPRP	-0.086
RRIRCRPPRLPRPRPRPNDCPRP	-0.0147
RRIRQRPPRLPRPRPRPALWPRP	0.144
RRIRNRPPRLPRPRPRPCYQPRP	-0.32
RRIRFRPPRLPRPRPRPRKKPRP	0.14

Sequence	shrunken log2 fold change
RRIRARPPRLPRPRPRPPEHPRP	0.606
RRIRCRPPRLPRPRPRPNHWPRP	-0.0209
RRIRPRPPRLPRPRPRPDAKPRP	0.201
RRIRHRPPRLPRPRPRPWMWPRP	-0.0064
RRIRQRPPRLPRPRPRPLPNPRP	0.0261
RRIRKRPPRLPRPRPRPLWHPRP	0.0951
RRIRHRPPRLPRPRPRPMTTPRP	-0.125
RRIRNRPPRLPRPRPRPRACPRP	-0.0233
RRIRARPPRLPRPRPRPSTKPRP	0.076
RRIRPRPPRLPRPRPRPELWPRP	0.889
RRIRMRPPRLPRPRPRPSAWPRP	1.75
RRIRQRPPRLPRPRPRPGHEPRP	0.104
RRIRWRPPRLPRPRPRPHHDPRP	-0.708
RRIRWRPPRLPRPRPRPIQQPRP	0.0331
RRIRDRPPRLPRPRPRPNKYPRP	-0.828
RRIRSRPPRLPRPRPRPYKEPRP	-0.0146
RRIRKRPPRLPRPRPRPRADPRP	0.511
RRIRSRPPRLPRPRPRPPPEPRP	0.852
RRIRHRPPRLPRPRPRPRKQPRP	0.11
RRIRERPPRLPRPRPRPWMGPRP	0.299
RRIRRRPPRLPRPRPRPKEWPRP	0.044
RRIRNRPPRLPRPRPRPFKIPRP	-0.0688

Sequence	shrunken log2 fold change
RRIRLRPPRLPRPRPRPWWGPRP	-0.063
RRIRDRPPRLPRPRPRPALPPRP	0.328
RRIRMRPPRLPRPRPRPMMGPRP	0.0255
RRIRNRPPRLPRPRPRPMKPPRP	-0.00018
RRIRNRPPRLPRPRPRPCDWPRP	-0.0698
RRIRLRPPRLPRPRPRPAMFPRP	-0.0833
RRIRPRPPRLPRPRPRPFQLPRP	-0.0657
RRIRFRPPRLPRPRPRPQYEPRP	0.0625
RRIRDRPPRLPRPRPRPDYRPRP	-0.241
RRIRHRPPRLPRPRPRPLYFPRP	-0.816
RRIRSRPPRLPRPRPRPLMFPRP	-0.321
RRIRTRPPRLPRPRPRPQATPRP	0.119
RRIRKRPPRLPRPRPRPPALPRP	0.57
RRIRRRPPRLPRPRPRPKNTPRP	-0.0507
RRIRPRPPRLPRPRPRPKGPPRP	0.641
RRIRRRPPRLPRPRPRPGHAPRP	0.398
RRIRYRPPRLPRPRPRPALWPRP	-0.0105
RRIRMRPPRLPRPRPRPLQHPRP	1.47
RRIRYRPPRLPRPRPRPLGRPRP	-0.191
RRIRLRPPRLPRPRPRPKDPPRP	-0.221
RRIRIRPPRLPRPRPRPPMQPRP	-0.193
RRIRRRPPRLPRPRPRPDSEPRP	0.036

Sequence	shrunken log2 fold change
RRIRLRPPRLPRPRPRPQMFPRP	-0.427
RRIRVRPPRLPRPRPRPRICPRP	-0.229
RRIRFRPPRLPRPRPRPMQYPRP	-0.683
RRIRCRPPRLPRPRPRPVILPRP	-0.799
RRIRRRPPRLPRPRPRPGPMPRP	0.353
RRIRMRPPRLPRPRPRPHDNPRP	0.0232
RRIRTRPPRLPRPRPRPNTNPRP	-0.556
RRIRDRPPRLPRPRPRPTMMPRP	0.338
RRIRERPPRLPRPRPRPIDWPRP	-0.0206
RRIRRRPPRLPRPRPRPGFTPRP	0.00987
RRIRNRPPRLPRPRPRPNQWPRP	-0.171
RRIRQRPPRLPRPRPRPPKMPRP	-0.0821
RRIRVRPPRLPRPRPRPLGVPRP	-0.116
RRIRIRPPRLPRPRPRPNVAPRP	0.00755
RRIRNRPPRLPRPRPRPNYPPRP	-0.0819
RRIRFRPPRLPRPRPRPVWIPRP	-0.0471
RRIRCRPPRLPRPRPRPLVVPRP	-0.347
RRIRCRPPRLPRPRPRPRCRPRP	0.285
RRIRGRPPRLPRPRPRPAPDPRP	1.07
RRIRLRPPRLPRPRPRPANWPRP	0.0804
RRIRFRPPRLPRPRPRPMMTPRP	0.022
